Source: patent publication US20140017242A1, “ANTI-BRADYKININ B2 RECEPTOR (BKB2R) MONOCLONAL ANTIBODY” (Diamedica, Inc., priority 2010, published 2014)
“And” between values parts separate entries of the source, which are not always exact repeats. Equal values may be shown once.

Tests used:
[1] = system: diet induced obese (DIO) mice; assay: Oral glucose tolerance test in DIO mice, single dose of 5F12G1; type: in vivo, mouse; details: single s.c. administration 1.0, 0.2 and 0.04 mg/kg
Method: This Example describes evaluation of oral glucose tolerance in diet induced obese (DIO) mice treated with the anti-BKB2R monoclonal antibody 5F12G1 (VH comprising SEQ ID NO:1, VL comprising SEQ ID NO:2). Male C57BL/6J mice (Jackson Laboratory, Bar Harbor, Me.) were maintained on a 60 kcal % fat diet with Research Diet and Arrowhead drinking water ad libitum and permitted to acclimatize for a period of eight weeks. Ten animals per group were treated according to the following treatment groups: 1, sterile PBS (vehicle control); 2, 1.0 mg/kg murine monoclonal antibody (mAb) 5F12G1; 3, 0.2 mg/kg mAb 5F12G1; 4, 0.04 mg/kg mAb 5F12G1.
Oral Glucose Tolerance Test. The Oral Glucose Tolerance Test (OGTT) was performed on overnight fasted (16 hours) mice. […] Blood glucose levels were measured before administration of vehicle or 5F12G1 (−30 minutes) and just before glucose loading (0 minute) and at ensuing timepoints of 15, 30, 60 90 and 120 minutes using an Accu-Chek™ glucose meter (Roche Diagnostics, Indianapolis, Ind.) according to the manufacturer's instructions.
At multiple time points (0, 15, 30, 60, 90 and 120 minutes) blood samples of approximately 50 μl each were collected and processed to isolate the plasma. The plasma samples were analyzed for insulin by an ELISA method using an ultra sensitive mouse insulin ELISA kit (Crystal Chem, Inc., Downers Grove, Ill.). […]

[2] = system: influenza strain A/Brisbane/07 (H1N1); type: cell-based, influenza virus
ZDF fa/fa rats [3] = assay: 21-day ZDF fa/fa study: hyperinsulinemic-euglycemic clamp in sub-groups; type: in vivo, rat; details: after 21 days
Method: (§1) Animals. Male ZDF fa/fa rats were obtained from CRL (Kingston, N.Y.). Upon arrival, rats were seven weeks of age. The rats were housed individually per cage in a room with a photo cycle of 12 hours of light and 12 hours of dark and an ambient temperature of 70-72° F. and fed on regular rodent diet and water ad libitum. At the age of eleven weeks, rats were divided into six groups (Table 5) of eight rats per group based on fasting blood glucose levels. A sub-group of four rats per group was maintained in parallel to the main groups and was dosed similarly for twenty-one days for a hyperinsulinemic-euglycemic clamp study.
The test compounds 5F12G1 and MG2b-57 were administered subcutaneously once every three days.

ZDF fa/fa rats [4] = assay: 21-day ZDF fa/fa study: oral glucose tolerance test (blood glucose, plasma insulin); type: in vivo, rat; details: day 21
Method: as §1, with “study. […]” for “study.”
(§2) An oral glucose tolerance test (OGTT) was performed on Day 0, 7, 14 and 21 for each group of the study. Plasma samples were collected at each time point during OGTT to also measure insulin levels. Body weight, food and water intake were measured twice a week. Blood pressure and heart rates were monitored on Day 0, 7, 14 and 21 using a non-invasive tail cuff method (with five readings per rat taken and then averaged). Fasting serum samples were collected on Day 0, 7, 14 and 21 before OGTT for determination of triglyceride and total cholesterol level. Urine samples were collected on Day 7 and 14 for the determination of glycosuria. Glycated (Glycosylated) hemoglobin (HbA1c) was measured at the end of the study. Assay kits for these studies were as presented in Table 6, and were used according to the suppliers' instructions.
OGTTs were performed on Day 0, 7, 14 and Day 21. Rats were fasted overnight and fasted blood glucose levels were measured (t=0 min), and then each rat was given a single 1.5 ml dose of glucose solution (2 g/kg body weight of D-(+)-glucose (G7528, Sigma) solubilized in deionized water) administered by oral gavage. […] At each time point of an OGGT approximately 50-60 μl of blood were collected and processed for plasma to measure insulin levels.
Plasma Collection. On days 0, 7, 14 and 21 during an OGTT test, blood samples were collected from the rats at each time point (0, 15, 30, 60, 90 and 120 minutes) into tubes containing lithium heparin (BD Biosciences, USA) by tail nip and kept on ice. The samples were then centrifuged at 4° C. for plasma separation and the plasma supernatants were transferred into 0.5 ml Eppendorf™ tubes by pipette and stored at −80° C. for the analysis of insulin levels.

ZDF fa/fa rats [5] = assay: 21-day ZDF fa/fa study: serum total cholesterol and triglyceride; type: in vivo, rat; details: day 21
Method: as §1, with “study. […]” for “study.”
as §2
The mean change in fasting blood glucose (mg/dL), serum cholesterol (mg/dL) and systolic blood pressure (mm Hg) from baseline (Day 0) to Day 21 was compared between the high-dose (5F12G1, 0.2 mg/kg) and negative control (MG2b-57, 0.2 mg/kg) groups using an analysis of covariance to adjust for baseline levels. The mean HbA1c percentage in high-dose (5F12G1, 0.2 mg/kg) rats was compared to the mean HbA1c percentage for negative control (MG2b-57, 0.2 mg/kg) rats using an unequal-variance, independent two-sample t-test. A significance level of a=0.05 was used for all tests, and all analyses were conducted using SAS statistical software (vs. 9.2, Cary, N.C., U.S.A.).

B1: 5F12G1: murine monoclonal anti-BKB2R antibody (IgG2b,κ), VH comprising SEQ ID NO:1, VL comprising SEQ ID NO:2 (antibody, listed as Mus musculus, V domains shown)
VH: EVKLEESGGGLVQPGGSMKLSCVVSGFTFSDYWMSWVRHSPEMGLEWVAEIRLKSDNYATHYAESVKGRFTISRDDSKSRLYLQINSLRGEDTGIYYCTRDYYAMEYWGQGTSVTVSS
VL: DVVMTQTPLSLPVSLGDQASISCRSSQTIVHSNGKTYLEWYLQKPGQSPKLLIYKVSNRFSGVPDRFSGSGSGTEFTLKISRVETEDLGVYYCFQASHVPYTFGGGTKLEIK
[1]
  insulin activity in OGTT: dose dependently increased insulin activity
[1]; 30 min before glucose 2 g/kg
  area under curve (AUC) of blood glucose concentration after oral loading of glucose, compared to vehicle control: decreased
[2]
  +/− Result FAM: Positive
[2]; A549 cells, qRT-PCR, FIGS. 5 to 8
  dose dependence of the reduction of viral titer / viral genomic copies: decreased viral titer in a dose-dependent manner
[2]; highest tested concentration of 100 μg/ml
  reduction in viral titer: 100 fold
[2]; listed as G1
  Ct FAM: 36.21 and 30.38 and 35.93 and 30.08 and 37.95 and 32.97 and 34.96 and 34.02
ZDF fa/fa rats [3]; 0.04 mg/kg s.c. every 3 days
  AUC-GIR (glucose infusion rate) in the clamp: significantly higher AUC-GIR
ZDF fa/fa rats [3]; 0.2 mg/kg s.c. every 3 days
  AUC-GIR (glucose infusion rate) in the clamp: significantly higher AUC-GIR
ZDF fa/fa rats [4]; 0.008 mg/kg s.c. every 3 days
  blood glucose level at the start of the OGTT: 190 ± 40 mg/dL
  fasting insulin level: 14 ± 3 ng/mL
  insulin level at 15 minutes of the OGTT: 24 ± 6 ng/mL
ZDF fa/fa rats [4]; 0.04 mg/kg s.c. every 3 days
  blood glucose level at 30 minutes of the OGTT (peak): 355 mg/dL
  blood glucose level at the start of the OGTT: 163 ± 40 mg/dL
  fasting insulin level: 12 ± 3 ng/mL
  insulin level at 15 minutes of the OGTT: 26 ± 3 ng/mL
ZDF fa/fa rats [4]; 0.2 mg/kg s.c. every 3 days
  AUC of blood glucose during OGTT: 33241.13 ± 3910.62 mg/dL (min)
  blood glucose level at 30 minutes of the OGTT (peak): 312 mg/dL
  blood glucose level at the start of the OGTT: 150 ± 20 mg/dL
  fasting insulin level: 17 ± 5 ng/mL
  insulin level at 15 minutes of the OGTT: 30 ± 7 ng/mL
ZDF fa/fa rats [4]; 0.008 s.c. every 3 days
  blood glucose level at 30 minutes of the OGTT (peak): 400 mg/dL
ZDF fa/fa rats [5]; 0.008 mg/kg s.c. every 3 days
  serum cholesterol: 167 ± 7 mg/dL
ZDF fa/fa rats [5]; 0.04 mg/kg s.c. every 3 days
  serum cholesterol: 162 ± 18 mg/dL
ZDF fa/fa rats [5]; 0.2 mg/kg s.c. every 3 days
  decrease of serum cholesterol from baseline: 12 ± 8 mg/dL
  serum cholesterol: 145 ± 26 mg/dL
